Tests used:
[1] = molecular target: SARS-CoV papain-like protease (PLpro), trypsin-trimmed product of P-PLpro(C2)-His6 (SARS-CoV)
[2] = molecular target: SARS-CoV papain-like protease (PLpro), trypsin-trimmed product of P-PLpro(C2)-His6 (SARS-CoV); remark: listed apart in the source

Sequence of ISG15(C)-AMC (P05161 82-157): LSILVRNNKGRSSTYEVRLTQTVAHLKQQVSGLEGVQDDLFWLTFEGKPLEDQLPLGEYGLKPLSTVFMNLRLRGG

| Substance | kcat/KM of hydrolysis of ISG15(C)-AMC by PLpro (fluorescence, pH 7.8, 25 °C) [1] [M⁻¹ s⁻¹] | kcat/KM of hydrolysis of Ub-AMC by PLpro (fluorescence, pH 7.8, 25 °C) [2] [M⁻¹ s⁻¹] |
| --- | --- | --- |
| ISG15(C)-AMC (from UniProt P05161 82-157) (domain or fragment) | 94000 |  |
| Ub-7-amino-4-methylcoumarin |  | 19800 |
